Assays:
[1] = molecular target: death receptor 4 (DR4, TRAIL-R1) on cells (UniProt O00220); experiment: cell-based or functional assay
[2] = molecular target: death receptor 5 (DR5, TRAIL-R2) on cells (UniProt O14763); experiment: cell-based or functional assay
rhTRAIL variant D218Y = experiment: competitive ELISA, soluble DR5-Ig varied, immobilised DR4-Ig
rhTRAIL variant D218H = experiment: as above

Chain of WT rhTRAIL (TRAIL amino acids 114-281 preceded by a methionine) (ligand) (P50591 114-281): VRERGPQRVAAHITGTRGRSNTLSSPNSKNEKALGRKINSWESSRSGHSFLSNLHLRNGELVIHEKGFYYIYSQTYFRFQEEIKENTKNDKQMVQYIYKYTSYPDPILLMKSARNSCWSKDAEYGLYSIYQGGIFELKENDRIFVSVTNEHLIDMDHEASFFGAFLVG

Substance | apoptosis (Annexin V staining) in EM-2 cells, 24 h; fold lower concentration than WT [1] [fold] | apoptosis (Annexin V staining) in ML-1 cells, 24 h; fold lower concentration than WT [1] [fold] | apoptosis (Annexin V positivity) in Colo205 cells [2] [ng/mL] | fold less efficient in achieving 50% reduction of binding, against rhTRAIL WT (rhTRAIL variant D218Y) [fold] | fold less efficient in achieving 50% reduction of binding, against rhTRAIL WT (rhTRAIL variant D218H) [fold]
rhTRAIL variant S215D (ligand) | 5 | 2 | – | – | –
WT rhTRAIL (TRAIL amino acids 114-281 preceded by a methionine) (ligand) | – | – | 20 | – | –
rhTRAIL variant R149I (ligand) | 5 | 2 | – | – | –
DR5-Ig receptor chimera (from UniProt O14763 56-182) (Fc fusion) | – | – | – | > 9 | > 9

From patent US20110200552A1
